This note sets out measurements from doi:10.1101/346296.

Experiment [1] concerns the target WT nucleosomal array (recombinant Xenopus laevis histone octamers on 601-177-12 or 601-177-36 DNA) (Xenopus laevis). The experiment can be described thus: AUC.
Experiment [2] addresses WT nucleosomal array with Sir2/4 complex added beforehand (S. cerevisiae | Xenopus laevis) (UniProt P06700). As to the kind of experiment: AUC.

For “FLAG-tagged Sir3 protein (from UniProt P06701 1-978) (natural protein)”, the stoichiometry N (molecules of Sir3 per array) in experiment [1] and in experiment [2] was 22 in each case.

For “TAP-tagged Sir2/4 complex (from UniProt P06700;P11978)”, in experiment [1], the stoichiometry N (Sir2/4 per nucleosome) is 1, the stoichiometry N (complexes bound per array) was found to be 4 and the stoichiometry N (molecules of Sir2/4 per array) was 11.
